Assay [1] addresses T1, commercially-prepared stable A-beta42 Oligomers (SynAging SAS) (human).
T1 construct: Bought oligomer preparation; also called AbO; SynAging AbO
Nature of the assay: ProteOn biosensor, antibody captured with anti-mouse IgG or amine-coupled on GLM chip, AbO 12.3 nM to 1 µM; hybridoma-purified antibody. As for the experimental part: (§1) AbO 3 fold-dilutions were used: 1 μM, 0.33 μM, 0.11 μM, 37 nM, 12.3 nM. Assay buffer was PBS-E+Tween 20+2 mg/ml BSA.

The target of assay [2] is T1, commercially-prepared stable A-beta42 …. The assay is described as follows: ProteOn biosensor, antibody captured with anti-mouse IgG or amine-coupled on GLM chip, AbO 12.3 nM to 1 µM; upper end of the printed range 16.2-19.5 nM; test or coupling not stated. As for the experimental part: as §1
Assay [3] shares this target. The assay is described as follows: ProteOn biosensor, antibody captured with anti-mouse IgG or amine-coupled on GLM chip, AbO 12.3 nM to 1 µM; lower end of the printed range 16.2-19.5 nM; test or coupling not stated. How it is done: as §1
Assay [4] addresses T2, cyclo(CGHHQKG) conjugated to BSA (also: conjugated to BSA, site not given here).
T2 construct: also called Cyclic Peptide; cyclopeptide
T2 peptide: cyclo(CGHHQKG)
The assay is described as follows: ProteOn biosensor, antibody amine-coupled to GLH chip, cyclo-BSA 111 pM to 9 nM. How it is done: Cyclo-BSA 3-fold dilutions were used from 9 nM to 111 pM. Assay buffer was PBS-E+0.05% Tween+10 mg/ml BSA.

T1 sequence (peptide, as listed by the source): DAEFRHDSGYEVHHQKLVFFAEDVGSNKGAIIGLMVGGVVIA

B1: 301-17 (hybridoma-purified IgG3) (antibody, V domains shown)
VH: QVQLQQPGAELVKPGASVKMSCKASGYSFTSYWINWVKQRPGQGLEWIGDVHPGRGVSTYNAKFKSKATLTLDTSSSTAYMQLSSLTSEDSAVYYCSRSHGNTYWFFDVWGAGTTVTVSS
VL: DVLMTQTPLSLPVSLGDQASISCRSSQSIVHSNGNTYLEWYLQKPGQSPKLLIYKVSNRFSGVPDRFSGSGSGTDFTLKISRVEAEDLGVYYCFQGSHVPFTFGSGTKLEIK
notes: Mouse hybridoma monoclonal, IgG3
The Kd is the free concentration of one partner at which half of the binding sites on the other are occupied at equilibrium, for simple one-to-one binding. In turn, B1 showed a Kd in assay [1] of around 26.9 nM.

B2: Recombinant 301-17 IgG2a (antibody)
heavy: QVQLQQPGAELVKPGASVKMSCKASGYSFTSYWINWVKQRPGQGLEWIGDVHPGRGVSTYNAKFKSKATLTLDTSSSTAYMQLSSLTSEDSAVYYCSRSHGNTYWFFDVWGAGTTVTVSSAKTTAPSVYPLAPVCGDTTGSSVTLGCLVKGYFPEPVTLTWNSGSLSSGVHTFPAVLQSDLYTLSSSVTVTSSTWPSQSITCNVAHPASSTKVDKKIEPRGPTIKPCPPCKCPAPNLLGGPSVFIFPPKIKDVLMISLSPIVTCVVVDVSEDDPDVQISWFVNNVEVHTAQTQTHREDYNSTLRVVSALPIQHQDWMSGKEFKCKVNNKDLPAPIERTISKPKGSVRAPQVYVLPPPEEEMTKKQVTLTCMVTDFMPEDIYVEWTNNGKTELNYKNTEPVLDSDGSYFMYSKLRVEKKNWVERNSYSCSVVHEGLHNHHTTKSFSRTPGK
light: DVLMTQTPLSLPVSLGDQASISCRSSQSIVHSNGNTYLEWYLQKPGQSPKLLIYKVSNRFSGVPDRFSGSGSGTDFTLKISRVEAEDLGVYYCFQGSHVPFTFGSGTKLEIKRADAAPTVSIFPPSSEQLTSGGASVVCFLNNFYPKDINVKWKIDGSERQNGVLNSWTDQDSKDSTYSMSSTLTLTKDEYERHNSYTCEATHKTSTSPIVKSFNRNEC
For the molecule B2, the Kd in assay [2] was 16.2 to 19.5 nM; in assay [3] it was 16.2 to 19.5 nM; in assay [4], around 0.017 nM.

For the origin of these results see US20250051428A1 (UNIVERSITY OF BRITISH COLUMBIA, published 2025).
